According to patent US9975933B2, “Tumor tissue-penetrating peptide specific to neuropilin and fusion protein having same peptide fused therein” (AJOU UNIVERSITY INDUSTRY-ACADEMIC COOPERATION FOUNDATION, priority 2013, dated 2018):

T1: NRP2-b1b2 (b1b2 domain of neuropilin-2) (Homo sapiens, UniProt O60462)
T1 construct: b1b2 domains (275-595) of neuropilin-2
T1 sequence (O60462 275-595): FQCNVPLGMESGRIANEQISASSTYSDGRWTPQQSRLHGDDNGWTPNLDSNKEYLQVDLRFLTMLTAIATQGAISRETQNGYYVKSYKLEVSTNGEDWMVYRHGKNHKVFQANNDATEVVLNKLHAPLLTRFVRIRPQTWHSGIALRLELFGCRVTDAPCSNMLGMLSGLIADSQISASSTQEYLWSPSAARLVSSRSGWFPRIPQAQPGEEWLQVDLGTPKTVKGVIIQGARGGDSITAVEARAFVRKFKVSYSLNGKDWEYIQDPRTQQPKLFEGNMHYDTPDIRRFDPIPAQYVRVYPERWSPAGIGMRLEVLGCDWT

B1: Sema3A: Secreted class 3 semaphorin 3A (26-760), neuropilin ligand, control group (protein)
chain: KNNVPRLKLSYKEMLESNNVITFNGLANSSSYHTFLLDEERSRLYVGAKDHIFSFDLVNIKDFQKIVWPVSYTRRDECKWAGKDILKECANFIKVLKAYNQTHLYACGTGAFHPICTYIEIGHHPEDNIFKLENSHFENGRGKSPYDPKLLTASLLIDGELYSGTAADFMGRDFAIFRTLGHHHPIRTEQHDSRWLNDPKFISAHLISESDNPEDDKVYFFFRENAIDGEHSGKATHARIGQICKNDFGGHRSLVNKWTTFLKARLICSVPGPNGIDTHFDELQDVFLMNFKDPKNPVVYGVFTTSSNIFKGSAVCMYSMSDVRRVFLGPYAHRDGPNYQWVPYQGRVPYPRPGTCPSKTFGGFDSTKDLPDDVITFARSHPAMYNPVFPMNNRPIVIKTDVNYQFTQIVVDRVDAEDGQYDVMFIGTDVGTVLKVVSIPKETWYDLEEVLLEEMTVFREPTAISAMELSTKQQQLYIGSTAGVAQLPLHRCDIYGKACAECCLARDPYCAWDGSACSRYFPTAKRRTRRQDIRNGDPLTHCSDLHHDNHHGHSPEERIIYGVENSSTFLECSPKSQRALVYWQFQRRNEERKEEIRVDDHIIRTDQGLLLRSLQQKDSGNYLCHAVEHGFIQTLLKVTLEVIDTEHLEELLHKDDDGDGSKTKEMSNSMTPSQKVWYRDFMQLINHPNLNTMDEFCEQVWKRDRKQRRQRPGHTPGNSNKWKHLQENKKGRNRR

What was measured:
VE-cadherin in HUVEC = assay: Western blot of VE-cadherin in HUVEC; format: cell-based, human; settings: single peptides and Fc-TPP 1 μM, 10 minutes
Source text: During this process, a decrease in vascular endothelial (VE)-cadherin, phosphorylation, etc. of endothelial cells occur. That is, VE-cadherin or epithelial (E)-cadherin involves in adhesion between endothelial cells, while forming the base of adherent junction between endothelial cells and epithelial cells. The change in molecules relieve the density of adherent junction, which results in increasing permeability of blood vessels and improving intracellular permeability.
As an experimental method for indirectly confirming improvement of vascular permeability based thereon, a change in VE-cadherin was confirmed through a Western blot. Specifically, HUVECs were seeded into 6-well plates at a density of 3×10^5 per well, followed by incubation for 24 hours. Thereafter, single peptides and Fc-TPP were treated with 1 μM for 10 minutes to perform a Western blot. Gel subjected to SDS-PAGE was transported into PVDF membrane, a primary antibody (SantaCruz) and an HRP-conjugated secondary antibody (SantaCruz) which recognize VE-cadherin and (3-actin, respectively were used for detection. ImageQuant LAS4000 mini (GE Healthcare) was used for analysis.

HUVEC = assay: Transwell assay of vascular endothelial cell permeability; format: cell-based, human; settings: 30 minutes
Method: Based on the above experimental results, as experiments for confirming the improvement of vascular endothelial cell permeability, single peptides and Fc-TPP were treated to conduct Transwell assay.
Specifically, HUVECs were seeded into Transwell plate (Corning) at a density of 5×10^4 per well in a upper chamber using Endothelial Growth Medium, PromoCell (EGM) medium, followed by incubation at 37° C. for 3 days under 5% CO2 condition. […] Thereafter, Dextran-FITC (Sigma) 50 μg was put into the upper chamber and the medium of the lower chamber was sampled to measure its fluorescence after 30 minutes, using the principle that a fluorescent substance is observed in the lower chamber when the permeability in HUVECs was improved.

A431 tumor = assay: IHC of Fc-TPP infiltration in A431 tumor tissue; format: in vivo, Balb/c nude mice; settings: A431 xenograft, 5 mg/kg intravenously, 3 hours
Method: 3 hours after injection, tumors were extracted from mice to conduct immunohistochemistry experiment. The extracted tumors were cut into 20 μm thick using a frozen section method, and stained with a primary antibody, CD31 antibody (BD Pharmingen), and a TRITC (red fluorescence)-conjugated secondary antibody. Further, in order to observe Fc-TPP distributed in the tissues, FITC (green fluorescence)-conjugated antibodies recognizing Fc were used.

[1] = test system: b1b2 domains of neuropilin-1 and -2; assay: ELISA binding to b1b2 domains of neuropilin-1 and -2; settings: 100 nM (peptides 100 nM, 1 μM)
Method: The binding capacity of purified Fc-TPP to b1b2 domains of neuropilin-1 and -2 (neuropilin (NRP)1/2-b1b1 domain) was confirmed in Enzyme Linked Immunosorbent Assay (ELISA).
The target molecules, b1b2 domains (273-586) of neuropilin-1 and b1b2 domains (275-595) of neuropilin-2, and the control group VEGFR2 (46-753) were bound in an amount of 1 μg each in 96-well EIA/RIA plates (COSTAR Corning In., USA) at room temperature for 1 hour, and then washed three times for 10 minutes with 0.1% PBST (0.1% Tween20, pH 7.4, 137 mM NaCl, 10 mM Phosphate, 2.7 mM KCl, SIGMA-ALDRICH co., USA). After binding for 1 hour with 5% skim milk (pH 7.4, 137 mM NaCl, 10 mM Phosphate, 2.7 mM KCl, SIGMA-ALDRICH co., USA), it was washed three times for 10 minutes with 0.1% PBST (0.1% Tween20, pH 7.4, 137 mM NaCl, 10 mM Phosphate, 2.7 mM KCl, SIGMA-ALDRICH co., USA). […] After binding to alkaline phosphatase (AP)-conjugated anti-biotin mAb (Sigma, USA) and reacting with pnitrophenyl […] (pNPP, SIGMA-ALDRICH co., USA), absorbance at 405 nm was quantified. From the ELISA result obtained from 30 minute-reaction of AP-pNPP, the binding capacity of expressed and purified Fc-TPP to b1b2 domains of neuropilin-1 and -2 was confirmed.

[2] = target: T2, NRP1-b1b2 (b1b2 domain of neuropilin-1) (Homo sapiens, UniProt O14786); assay: SPR (Biacore2000) binding to b1b2 domain of neuropilin-1; settings: NRP1-b1b2, SPR; for Kd: read-out: Binding affinity KD
T2 construct: b1b2 domains (273-586) of neuropilin-1
Method: (§1) Specifically, each b1b2 domain of neuropilin-1 and -2 was diluted with 10 mM Na-acetate buffer (pH 4.0), and fixed onto CMS sensor chips (GE healthcare, USA) in about 1000 response units (RU). […] After bond and dissociation analysis, the regeneration of CMS chip was performed by streaming a buffer (20 Mm NaOH, 1 M NaCl, pH 10.0) at a stream velocity 30 μl/min for 1 minute.

[3] = target: T1, NRP2-b1b2 (b1b2 domain of neuropilin-2); assay: SPR (Biacore2000) binding to b1b2 domain of neuropilin-2; settings: for Kd: read-out: Binding affinity KD
Method: as §1

[4] = target: b1b2 domains (273-586) of neuropilin-1 (Homo sapiens (Human)) (UniProt O14786); assay: SPR, b1b2 domain on chip
[5] = target: b1b2 domains (275-595) of neuropilin-2 (Homo sapiens (Human)) (UniProt O60462); assay: SPR, b1b2 domain on chip
FaDu tumor = assay: In vivo Evans Blue assay of vascular permeability; parameters: species or system Balb/c nude mice; settings: FaDu xenograft, 400 ng, 40 minutes
Method: Additionally, in order to confirm the improvement of vascular permeability in vivo, Evans Blue assay was conducted. […] 40 minutes after injection, the mice were perfused through the heart with PBS containing 1% BSA, and tumor tissues were extracted (FIG. 11d). Then, the extracted tissues were put into 1 ml of […] (Sigma) and reacted at 37° C. overnight under mild shaking condition. Thereafter, the supernatant was obtained from centrifugation to measure the absorbance (600 nm), and the amount that Evans Blue penetrated was quantified.

[6] = single peptides and Fc-TPP 1 μM

T2 sequence (O14786 273-586): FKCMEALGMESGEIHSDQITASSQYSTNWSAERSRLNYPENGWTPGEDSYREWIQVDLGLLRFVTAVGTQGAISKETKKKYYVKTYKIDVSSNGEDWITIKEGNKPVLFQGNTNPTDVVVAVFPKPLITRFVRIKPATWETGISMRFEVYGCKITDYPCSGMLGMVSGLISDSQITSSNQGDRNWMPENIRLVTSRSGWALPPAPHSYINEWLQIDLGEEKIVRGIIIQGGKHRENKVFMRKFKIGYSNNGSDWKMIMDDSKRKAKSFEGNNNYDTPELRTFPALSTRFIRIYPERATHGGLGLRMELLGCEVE

| Molecule | change in VE-cadherin (Western blot) (VE-cadherin in HUVEC) | permeability of HUVEC (Transwell, Dextran-FITC) (HUVEC; [6]) | Association rate ka [2] | Dissociation rate kd [2] | Kd [2] [nM] | Association rate ka [3] | Dissociation rate kd [3] | Kd [3] [nM] | other results |
| --- | --- | --- | --- | --- | --- | --- | --- | --- | --- |
| A22: Sema3A-derived 22 amino acid TPP, residues 739-760, SEQ ID NO: 1, HTPGNSNKWKHLQENKKGRNRR (A22) [Clone A22] | no change in VE-cadherin | improvement of vascular permeability was not induced |  |  |  |  |  |  | infiltration into tumor tissue (IHC) (A431 tumor): did not infiltrate into the tissues |
| A22p: A22 with Asn758Pro, SEQ ID NO: 2, HTPGNSNKWKHLQENKKGRPRR (A22p) [Clone A22p] | no change in VE-cadherin | improvement of vascular permeability was not induced |  |  |  |  |  |  | binding to b1b2 domains of NRP-1 and -2 (ELISA, absorbance 405 nm) [1]: stronger bond; infiltration into tumor tissue (IHC) (A431 tumor): did not infiltrate into the tissues |
| F22: Sema3F-derived 22 amino acid TPP, residues 758-779, SEQ ID NO: 3, REAPGAPRSPEPQDQKKPRNRR (F22) [Clone F22] |  | permeability of HUVEC was not improved |  |  |  |  |  |  |  |
| F22p: F22 with Asn777Pro, SEQ ID NO: 4, REAPGAPRSPEPQDQKKPRPRR (F22p) [Clone F22p] |  | permeability of HUVEC was not improved |  |  |  |  |  |  | binding to b1b2 domains of NRP-1 and -2 (ELISA, absorbance 405 nm) [1]: stronger bond |
| Fc-4A22: Human IgG1 Fc with TPP 4A22 (SEQ ID NO: 5) fused to its C-terminus (GAGAHTPGNSNKWKHLQENKKGRNRR) | VE-cadherin was not decreased | improvement of vascular permeability was not induced | 1.02 ± 0.14 × 10^3 M^−1s^−1 | 1.93 ± 0.05 × 10^−2 s^−1 | 18000 | 6.09 ± 0.63 × 10^3 M^−1s^−1 | 1.23 ± 0.16 × 10^−1 s^−1 | 20200 |  |
| Fc-4F22: Human IgG1 Fc with TPP 4F22 (SEQ ID NO: 8) fused to its C-terminus (GAGAREAPGAPRSPEPQDQKKPRNRR) |  | permeability of HUVEC was not improved | 2.18 ± 0.12 × 10^2 M^−1s^−1 | 2.25 ± 0.18 × 10^−3 s^−1 | 10300 | 1.21 ± 0.15 × 10^2 M^−1s^−1 | 1.57 ± 0.40 × 10^−3 s^−1 | 13000 |  |
| Fc-15F22: Human IgG1 Fc with (GGGGS)3-F22 (SEQ ID NO: 9) fused to its C-terminus (GGGGSGGGGSGGGGSREAPGAPRSPEPQDQKKPRNRR) |  | permeability of HUVEC was not improved | 1.35 ± 0.24 × 10^3 M^−1s^−1 | 5.34 ± 0.24 × 10^−2 s^−1 | 39700 | 1.05 ± 0.03 × 10^3 M^−1s^−1 | 1.30 ± 0.21 × 10^−2 s^−1 | 12400 |  |
| Sema3A (26-760) (from UniProt Q14563) (ligand) |  |  |  |  |  |  |  |  | Kd [4]: 27.9 nM; koff [4]: 0.000808 s⁻¹; kon [4]: 28900 M⁻¹ s⁻¹; Kd [5]: 231 nM; koff [5]: 0.00161 s⁻¹; kon [5]: 6960 M⁻¹ s⁻¹ |
| Sema3F (19-779) (from UniProt Q13275) (ligand) |  |  |  |  |  |  |  |  | Kd [4]: 245 nM; koff [4]: 0.000973 s⁻¹; kon [4]: 3980 M⁻¹ s⁻¹; Kd [5]: 345 nM; koff [5]: 0.0015 s⁻¹; kon [5]: 4340 M⁻¹ s⁻¹ |
| VEGF165A (from UniProt P15692-4) (ligand) |  |  |  |  |  |  |  |  | Kd [4]: 3.51 nM; koff [4]: 0.00342 s⁻¹; kon [4]: 975000 M⁻¹ s⁻¹; Kd [5]: 32 nM; koff [5]: 0.00373 s⁻¹; kon [5]: 117000 M⁻¹ s⁻¹ |
| B1 | a decrease in VE-cadherin was observed |  | 2.89 ± 0.07 × 10^4 M^−1s^−1 | 8.08 ± 0.06 × 10^−4 s^−1 | 27.9 | 6.96 ± 0.03 × 10^3 M^−1s^−1 | 1.61 ± 0.28 × 10^−3 s^−1 | 231 | permeability of HUVEC (Transwell, Dextran-FITC) (HUVEC; control ligands about 1.3 nM): permeability of HUVEC was improved; vascular permeability (Evans Blue) (FaDu tumor): increased vascular permeability |
